Here are results for 8 molecules from US20250171562A1.

B1: CIgG4F2A1(G4S)3 (Fc fusion)
chain 1: GPPCPPCPAPEFLGGPSVFLFPPKPKDTLMISRTPEVTCVVVDVSQEDPEVQFNWYVDGVEVHNAKTKPREEQFNSTYRVVSVLTVLHQDWLNGKEYKCKVSNKGLPSSIEKTISKAKGQPREPQVYTLPPCQEEMTKNQVSLWCLVKGFYPSDIAVEWESNGQPENNYKTTPPVLDSDGSFFLYSRLTVDKSRWQEGNVFSCSVMHEALHNHYTQKSLSLSLGKGGGGSGGGGSGGGGSDVQLQESGGGLVQAGGSLKLSCAASGGSLSRYDMGWFRQAPGKEREFVARISWSGDTKYYADAVEGRFAISRDNAQNTVYLQMNSLKPEDTAVYYCAVALYGNRGYYDVNTYSYWGQGTRVTVS
chain 2: GPPCPPCPAPEFLGGPSVFLFPPKPKDTLMISRTPEVTCVVVDVSQEDPEVQFNWYVDGVEVHNAKTKPREEQFNSTYRVVSVLTVLHQDWLNGKEYKCKVSNKGLPSSIEKTISKAKGQPREPQVCTLPPSQEEMTKNQVSLSCAVKGFYPSDIAVEWESNGQPENNYKTTPPVLDSDGSFFLVSRLTVDKSRWQEGNVFSCSVMHEALHNHYTQKSLSLSLGKGGGGSGGGGSGGGGSEVQLLESGGGLVQPGGSLRLSCAASGFTFGNYDMAWVRQAPGKRPEWVSSIDTGGDITHYADSVKGRFTISRDNAKNTLYLQMNSLRPEDTAVYWCATDEEYALGPNEFDYYGQGTLVTVSS
B2: CIgG4F2A1(G4S)2 (Fc fusion)
chain 1: GPPCPPCPAPEFLGGPSVFLFPPKPKDTLMISRTPEVTCVVVDVSQEDPEVQFNWYVDGVEVHNAKTKPREEQFNSTYRVVSVLTVLHQDWLNGKEYKCKVSNKGLPSSIEKTISKAKGQPREPQVYTLPPCQEEMTKNQVSLWCLVKGFYPSDIAVEWESNGQPENNYKTTPPVLDSDGSFFLYSRLTVDKSRWQEGNVFSCSVMHEALHNHYTQKSLSLSLGKGGGGSGGGGSDVQLQESGGGLVQAGGSLKLSCAASGGSLSRYDMGWFRQAPGKEREFVARISWSGDTKYYADAVEGRFAISRDNAQNTVYLQMNSLKPEDTAVYYCAVALYGNRGYYDVNTYSYWGQGTRVTVS
chain 2: GPPCPPCPAPEFLGGPSVFLFPPKPKDTLMISRTPEVTCVVVDVSQEDPEVQFNWYVDGVEVHNAKTKPREEQFNSTYRVVSVLTVLHQDWLNGKEYKCKVSNKGLPSSIEKTISKAKGQPREPQVCTLPPSQEEMTKNQVSLSCAVKGFYPSDIAVEWESNGQPENNYKTTPPVLDSDGSFFLVSRLTVDKSRWQEGNVFSCSVMHEALHNHYTQKSLSLSLGKGGGGSGGGGSEVQLLESGGGLVQPGGSLRLSCAASGFTFGNYDMAWVRQAPGKRPEWVSSIDTGGDITHYADSVKGRFTISRDNAKNTLYLQMNSLRPEDTAVYWCATDEEYALGPNEFDYYGQGTLVTVSS
B3: NIgG4F2A1(G4S)2 (Fc fusion)
chain 1: DVQLQESGGGLVQAGGSLKLSCAASGGSLSRYDMGWFRQAPGKEREFVARISWSGDTKYYADAVEGRFAISRDNAQNTVYLQMNSLKPEDTAVYYCAVALYGNRGYYDVNTYSYWGQGTRVTVSGGGGSGGGGSGPPCPPCPAPEFLGGPSVFLFPPKPKDTLMISRTPEVTCVVVDVSQEDPEVQFNWYVDGVEVHNAKTKPREEQFNSTYRVVSVLTVLHQDWLNGKEYKCKVSNKGLPSSIEKTISKAKGQPREPQVYTLPPCQEEMTKNQVSLWCLVKGFYPSDIAVEWESNGQPENNYKTTPPVLDSDGSFFLYSRLTVDKSRWQEGNVFSCSVMHEALHNHYTQKSLSLSLGK
chain 2: EVQLLESGGGLVQPGGSLRLSCAASGFTFGNYDMAWVRQAPGKRPEWVSSIDTGGDITHYADSVKGRFTISRDNAKNTLYLQMNSLRPEDTAVYWCATDEEYALGPNEFDYYGQGTLVTVSSGGGGSGGGGSGPPCPPCPAPEFLGGPSVFLFPPKPKDTLMISRTPEVTCVVVDVSQEDPEVQFNWYVDGVEVHNAKTKPREEQFNSTYRVVSVLTVLHQDWLNGKEYKCKVSNKGLPSSIEKTISKAKGQPREPQVCTLPPSQEEMTKNQVSLSCAVKGFYPSDIAVEWESNGQPENNYKTTPPVLDSDGSFFLVSRLTVDKSRWQEGNVFSCSVMHEALHNHYTQKSLSLSLGK
B4: NIgG4F2A1(G4S)3 (Fc fusion)
chain 1: DVQLQESGGGLVQAGGSLKLSCAASGGSLSRYDMGWFRQAPGKEREFVARISWSGDTKYYADAVEGRFAISRDNAQNTVYLQMNSLKPEDTAVYYCAVALYGNRGYYDVNTYSYWGQGTRVTVSGGGGSGGGGSGGGGSGPPCPPCPAPEFLGGPSVFLFPPKPKDTLMISRTPEVTCVVVDVSQEDPEVQFNWYVDGVEVHNAKTKPREEQFNSTYRVVSVLTVLHQDWLNGKEYKCKVSNKGLPSSIEKTISKAKGQPREPQVYTLPPCQEEMTKNQVSLWCLVKGFYPSDIAVEWESNGQPENNYKTTPPVLDSDGSFFLYSRLTVDKSRWQEGNVFSCSVMHEALHNHYTQKSLSLSLGK
chain 2: EVQLLESGGGLVQPGGSLRLSCAASGFTFGNYDMAWVRQAPGKRPEWVSSIDTGGDITHYADSVKGRFTISRDNAKNTLYLQMNSLRPEDTAVYWCATDEEYALGPNEFDYYGQGTLVTVSSGGGGSGGGGSGGGGSGPPCPPCPAPEFLGGPSVFLFPPKPKDTLMISRTPEVTCVVVDVSQEDPEVQFNWYVDGVEVHNAKTKPREEQFNSTYRVVSVLTVLHQDWLNGKEYKCKVSNKGLPSSIEKTISKAKGQPREPQVCTLPPSQEEMTKNQVSLSCAVKGFYPSDIAVEWESNGQPENNYKTTPPVLDSDGSFFLVSRLTVDKSRWQEGNVFSCSVMHEALHNHYTQKSLSLSLGK
B5: NIgG4F3A1(G4S)1 (Fc fusion)
chain 1: DVQLQESGGGLVQAGGSLKLSCAASRGSLSRWDVAWFRQAPGKERSFVTRISWSGTTSYYADAVKGRFAISRDNAKNTVYLQMNSLKPEDTAVYYCAVALYGNRGYYDVNAHSYWGQGTQVTVSGGGGSGPPCPPCPAPEFLGGPSVFLFPPKPKDTLMISRTPEVTCVVVDVSQEDPEVQFNWYVDGVEVHNAKTKPREEQFNSTYRVVSVLTVLHQDWLNGKEYKCKVSNKGLPSSIEKTISKAKGQPREPQVYTLPPCQEEMTKNQVSLWCLVKGFYPSDIAVEWESNGQPENNYKTTPPVLDSDGSFFLYSRLTVDKSRWQEGNVFSCSVMHEALHNHYTQKSLSLSLGK
chain 2: EVQLLESGGGLVQPGGSLRLSCAASGFTFGNYDMAWVRQAPGKRPEWVSSIDTGGDITHYADSVKGRFTISRDNAKNTLYLQMNSLRPEDTAVYWCATDEEYALGPNEFDYYGQGTLVTVSSGGGGSGPPCPPCPAPEFLGGPSVFLFPPKPKDTLMISRTPEVTCVVVDVSQEDPEVQFNWYVDGVEVHNAKTKPREEQFNSTYRVVSVLTVLHQDWLNGKEYKCKVSNKGLPSSIEKTISKAKGQPREPQVCTLPPSQEEMTKNQVSLSCAVKGFYPSDIAVEWESNGQPENNYKTTPPVLDSDGSFFLVSRLTVDKSRWQEGNVFSCSVMHEALHNHYTQKSLSLSLGK
B6: NIgG4F3A1(RS) (Fc fusion)
chain 1: DVQLQESGGGLVQAGGSLKLSCAASRGSLSRWDVAWFRQAPGKERSFVTRISWSGTTSYYADAVKGRFAISRDNAKNTVYLQMNSLKPEDTAVYYCAVALYGNRGYYDVNAHSYWGQGTQVTVSRSGPPCPPCPAPEFLGGPSVFLFPPKPKDTLMISRTPEVTCVVVDVSQEDPEVQFNWYVDGVEVHNAKTKPREEQFNSTYRVVSVLTVLHQDWLNGKEYKCKVSNKGLPSSIEKTISKAKGQPREPQVYTLPPCQEEMTKNQVSLWCLVKGFYPSDIAVEWESNGQPENNYKTTPPVLDSDGSFFLYSRLTVDKSRWQEGNVFSCSVMHEALHNHYTQKSLSLSLGK
chain 2: EVQLLESGGGLVQPGGSLRLSCAASGFTFGNYDMAWVRQAPGKRPEWVSSIDTGGDITHYADSVKGRFTISRDNAKNTLYLQMNSLRPEDTAVYWCATDEEYALGPNEFDYYGQGTLVTVSSRSGPPCPPCPAPEFLGGPSVFLFPPKPKDTLMISRTPEVTCVVVDVSQEDPEVQFNWYVDGVEVHNAKTKPREEQFNSTYRVVSVLTVLHQDWLNGKEYKCKVSNKGLPSSIEKTISKAKGQPREPQVCTLPPSQEEMTKNQVSLSCAVKGFYPSDIAVEWESNGQPENNYKTTPPVLDSDGSFFLVSRLTVDKSRWQEGNVFSCSVMHEALHNHYTQKSLSLSLGK
B7: CIgG4F2A1(RS) (Fc fusion)
chain 1: GPPCPPCPAPEFLGGPSVFLFPPKPKDTLMISRTPEVTCVVVDVSQEDPEVQFNWYVDGVEVHNAKTKPREEQFNSTYRVVSVLTVLHQDWLNGKEYKCKVSNKGLPSSIEKTISKAKGQPREPQVYTLPPCQEEMTKNQVSLWCLVKGFYPSDIAVEWESNGQPENNYKTTPPVLDSDGSFFLYSRLTVDKSRWQEGNVFSCSVMHEALHNHYTQKSLSLSLGKRSDVQLQESGGGLVQAGGSLKLSCAASGGSLSRYDMGWFRQAPGKEREFVARISWSGDTKYYADAVEGRFAISRDNAQNTVYLQMNSLKPEDTAVYYCAVALYGNRGYYDVNTYSYWGQGTRVTVS
chain 2: GPPCPPCPAPEFLGGPSVFLFPPKPKDTLMISRTPEVTCVVVDVSQEDPEVQFNWYVDGVEVHNAKTKPREEQFNSTYRVVSVLTVLHQDWLNGKEYKCKVSNKGLPSSIEKTISKAKGQPREPQVCTLPPSQEEMTKNQVSLSCAVKGFYPSDIAVEWESNGQPENNYKTTPPVLDSDGSFFLVSRLTVDKSRWQEGNVFSCSVMHEALHNHYTQKSLSLSLGKRSEVQLLESGGGLVQPGGSLRLSCAASGFTFGNYDMAWVRQAPGKRPEWVSSIDTGGDITHYADSVKGRFTISRDNAKNTLYLQMNSLRPEDTAVYWCATDEEYALGPNEFDYYGQGTLVTVSS
B8: CIgG4F2A1(G4S)1 (Fc fusion)
chain 1: GPPCPPCPAPEFLGGPSVFLFPPKPKDTLMISRTPEVTCVVVDVSQEDPEVQFNWYVDGVEVHNAKTKPREEQFNSTYRVVSVLTVLHQDWLNGKEYKCKVSNKGLPSSIEKTISKAKGQPREPQVYTLPPCQEEMTKNQVSLWCLVKGFYPSDIAVEWESNGQPENNYKTTPPVLDSDGSFFLYSRLTVDKSRWQEGNVFSCSVMHEALHNHYTQKSLSLSLGKGGGGSDVQLQESGGGLVQAGGSLKLSCAASGGSLSRYDMGWFRQAPGKEREFVARISWSGDTKYYADAVEGRFAISRDNAQNTVYLQMNSLKPEDTAVYYCAVALYGNRGYYDVNTYSYWGQGTRVTVS
chain 2: GPPCPPCPAPEFLGGPSVFLFPPKPKDTLMISRTPEVTCVVVDVSQEDPEVQFNWYVDGVEVHNAKTKPREEQFNSTYRVVSVLTVLHQDWLNGKEYKCKVSNKGLPSSIEKTISKAKGQPREPQVCTLPPSQEEMTKNQVSLSCAVKGFYPSDIAVEWESNGQPENNYKTTPPVLDSDGSFFLVSRLTVDKSRWQEGNVFSCSVMHEALHNHYTQKSLSLSLGKGGGGSEVQLLESGGGLVQPGGSLRLSCAASGFTFGNYDMAWVRQAPGKRPEWVSSIDTGGDITHYADSVKGRFTISRDNAKNTLYLQMNSLRPEDTAVYWCATDEEYALGPNEFDYYGQGTLVTVSS

The assay deals with mixture of three Der p 2 specific recombinant human IgE clones H10, H12, P4E (human) (UniProt P01854). Description: RBL-SX38 IgE displacement, FACS.
mixture of three Der p 2 specific recombinant human IgE clones H10, H12, P4E (human), sequence (P01854 other isoform, or with tags, fused parts or gaps): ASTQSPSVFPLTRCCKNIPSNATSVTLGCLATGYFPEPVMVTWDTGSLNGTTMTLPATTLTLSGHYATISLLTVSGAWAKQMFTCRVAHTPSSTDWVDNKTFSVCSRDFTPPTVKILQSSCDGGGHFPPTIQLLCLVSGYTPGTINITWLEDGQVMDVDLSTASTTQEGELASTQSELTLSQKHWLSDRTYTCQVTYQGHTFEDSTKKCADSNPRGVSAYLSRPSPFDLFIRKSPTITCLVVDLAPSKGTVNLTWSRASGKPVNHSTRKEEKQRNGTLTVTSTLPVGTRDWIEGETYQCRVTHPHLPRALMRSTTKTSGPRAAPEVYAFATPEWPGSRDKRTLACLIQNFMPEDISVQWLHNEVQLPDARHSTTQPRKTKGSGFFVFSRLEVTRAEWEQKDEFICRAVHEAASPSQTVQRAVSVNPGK
With B1, the Max effect/effect 1 µM was 2%.
The same measure, in the same setting: under B2 stands 0%.
Consider B3, for which the EC50 is 2 nM and the Max effect/effect 1 µM came to 94%.
The corresponding values for B4 are 2 nM and 95%.
For B5, in that order: 2 nM and 93%.
For B6, in that order: 2 nM and 93%.
As for B7, the Max effect/effect 1 µM was found to be 3%.
As to B8, the Max effect/effect 1 µM came to 11%.

The term EC50 denotes the concentration that produces a half-maximal response.
